Measurements published in patent publication US7655227 (Chugai, dated 2010).
Changes are numbered by the printed parent chain. One block for each binder: values may come before it.

What was measured:
[1] = target: T1, human PTHrP (1-34) (human); experiment: ELISA, plate coated with human PTHrP (1-34)
T1 construct: Coated on the ELISA plate at 1 ug/ml; Added at 1 ng/ml final in the cAMP neutralisation assay, where the species is not restated; also called parathyroid hormone-related peptide (1-34)
Description: An ELISA plate for determining antigen-binding ability was prepared as follows. Each well of a 96-well ELISA plate was coated with 100 μl of a coating buffer containing 1 μg/ml of human PTHrP (1-34) and then blocked with 200 μl of a dilution buffer. Subsequently, each well was added with each of the serial dilutions of the COS-7 cell culture supernatant in which each of the hybrid antibodies and humanized antibodies was expressed, or added with each of the serial dilutions of each of the hybrid antibodies and humanized antibodies in a purified form. The plate was incubated at room temperature and washed with PBS-Tween 20. Subsequently, each well was added with 100 μl of alkaline phosphatase-conjugated goat anti-human IgG antibody (TAGO). The plate was incubated at room temperature and washed with PBS-Tween 20. Subsequently, each well was added with 1 mg/ml of a substrate solution ("Sigma 104"; p-nitrophenylphosphoric acid, SIGMA). The solution was measured on its absorbance at 405 nm using Microplate Reader (Bio Rad).

[2] = target: T1, human PTHrP (1-34); experiment: ELISA, plate coated with human PTHrP (1-34); COS-7 supernatant or purified antibody
Description: An ELISA plate for the determination of antigen-binding ability was prepared as follows. Each well of a 96-well ELISA plate was coated with 100 µl of a coating buffer supplemented with 1 µg/ml of human PTHrP (1-34) (Peptide Research Institute), and then blocked with 200 µl of a dilution buffer. Each well was added with each of the serial dilutions of the COS-7 cell culture supernatant in which each of the chimeric antibodies had been expressed, or added with each of the serial dilutions of each of the chimeric antibodies per se in a purified form. After the plate was incubated at room temperature and washed with PBS-Tween 20, each well of the plate was added with 100 µl of a solution of alkaline phosphatase-conjugated goat anti-human IgG antibodies (TAGO). After the plate was incubated at room temperature and washed with PBS-Tween 20, each well of the plate was added with 1 mg/ml of a substrate solution ("Sigma 104"; p-nitrophenylphosphoric acid, SIGMA). The solution was measured on its absorbance at 405 nm using Microplate Reader (Bio Rad).

[3] = target: T1, human PTHrP (1-34); experiment: solid phase RIA of hybridoma culture supernatant
Description: The screening of hybridomas was performed by determining the presence of PTHrP-recognition antibodies in the culture supernatant of the wells in which cell growth had been observed in HAT medium, by solid phase RIA method. The hybridomas were collected from the wells in which the binding ability to the PTHrP-recognition antibodies had been confirmed. The hybridomas thus obtained was suspended into RPMI-1640 medium containing 15% FCS supplemented with OPI-supplement (Sigma), followed by unification of the hybridomas by limiting dilution method.

- binding result [1]: binds
B1: antibody having both a humanized H-chain version “a” and a chimeric L-chain (antibody, V domains shown)
VH: QVQLVESGGGVVQPGRSLRLSCAASGFTFSSYGMSWVRQAPGKGLEWVATISSGGSYTYYPDSVKGRFTISRDNSKNTLYLQMNSLRAEDTAVYYCARQTTMTYFAYWGQGTLVTVSS
VL: QLVLTQSSSASFSLGASAKLTCTLSSQHSTYTIEWYQQQPLKPPKYVMDLKQDGSHSTGDGIPDRFSGSSSGADRYLSISNIQPEDEAMYICGVGDTIKEQFVYVFGGGTKVTVLG
notes: Human Cγ1 H-chain C-region

- binding result [2]: binds
B2: chimeric #23-57-137-1 antibody with L-chain κ chain C-region (antibody, IgG1, V domains shown)
VH: EVQLVESGGDLVKPGGSLKLSCAASGFTFSSYGMSWIRQTPDKRLEWVATISSGGSYTYYPDSVKGRFTISRDNAKNTLYLQMSSLKSEDTAMFYCARQTTMTYFAYWGQGTLVTVSA
VL: B1 VL
notes: Mouse V-regions joined to human H-chain C-region Cγ1 (IgG1) and human κ chain C-region cloned from HEF-PM1k-gk; Expressed in COS-7 cells; also called chimeric antibody (MBC1HcDNA/pCOS1 and MBC1L(κ)/neo)

- binding result [2]: binds
B3: chimeric #23-57-137-1 antibody with L-chain λ chain C-region (antibody, IgG1, V domains shown)
VH: B2 VH
VL: B1 VL
notes: Mouse V-regions joined to human H-chain C-region Cγ1 (IgG1) and human λ chain C-region (isotype Mcg+Ke+Oz-, EMBL X57819); Expressed in COS-7 cells; also called chimeric antibody (MBC1HcDNA/pCOS1 and MBC1L(λ)/neo)

- binding result [3]: binds
B4: mouse monoclonal antibody #23-57-137-1 against human PTHrP (1-34) (antibody, V domains shown)
VH: B2 VH
VL: B1 VL
notes: Mouse antibody in hybridoma culture supernatant (FERM BP-5631); Lambda L-chain; also called MBC1

- binding result [1]: binds
B5: hybrid antibody with humanized H-chain version a and L-chain m/hMBC1Laλ (mouse FR1,2/human FR3,4) (antibody, V domains shown)
VH: B1 VH
VL: QLVLTQSSSASFSLGASAKLTCTLSSQHSTYTIEWYQQQPLKPPKYVMDLKQDGSHSTGDGIPDRFSGSSSGAERYLTISSLQSEDEADYYCGVGDTIKEQFVYVFGGGTKLTVL
notes: Human Cγ1 and human λ C-regions; expressed in COS-7 cells

- binding result [1]: binds
B6: humanized #23-57-137-1 antibody having H-chain version “a” and L-chain version “j” (antibody, IgG1, V domains shown)
VH: B1 VH
VL: QLVLTQSPSASASLGASVKLTCTLSSQHSTYTIEWYQQQPEKGPKYLMDLKQDGSHSTGDGIPDRFSGSSSGAERYLTISSLQSEDEADYYCGVGDTIKEQFVYVFGGGTKLTVLG
notes: Human Cγ1 (IgG1) and human λ C-regions; expressed in COS-7 cells; also called hMBC1Ljλ

- binding result [1]: binds
B7: hybrid antibody with humanized H-chain version a and L-chain hmmMBC1L(λ) (human FR1/mouse FR2,3,4) (antibody, V domains shown)
VH: B1 VH
VL: QLVLTQSPSASASLGASVKLTCTLSSQHSTYTIEWYQQQPLKPPKYVMDLKQDGSHSTGDGIPDRFSGSSSGADRYLSISNIQPEDEAMYICGVGDTIKEQFVYVFGGGTKVTVL
notes: as for B5

- binding result [1]: binds
B8: humanized #23-57-137-1 antibody having H-chain version “a” and L-chain version “q” (antibody, IgG1, V domains shown)
VH: B1 VH
VL: B6 VL with Y91I
notes: Human Cγ1 (IgG1) and human λ C-regions; expressed in COS-7 cells and in CHO cells; also called hMBC1Lqλ

- binding result [1]: binds
B9: humanized #23-57-137-1 antibody having H-chain version “a” and L-chain version “t” (antibody, IgG1, V domains shown)
VH: B1 VH
VL: B6 VL with K45R, L47V, Y91I
notes: Human Cγ1 (IgG1) and human λ C-regions; expressed in COS-7 cells; also called hMBC1Ltλ

- binding result [1]: binds
B10: humanized #23-57-137-1 antibody having H-chain version “a” and L-chain version “o” (antibody, IgG1, V domains shown)
VH: B1 VH
VL: B6 VL with K45R, L47V
notes: Human Cγ1 (IgG1) and human λ C-regions; expressed in COS-7 cells; also called hMBC1Loλ

- binding result [1]: binds
B11: humanized #23-57-137-1 antibody having H-chain version “a” and L-chain version “m” (antibody, IgG1, V domains shown)
VH: B1 VH
VL: B6 VL with K45R
notes: Human Cγ1 (IgG1) and human λ C-regions; expressed in COS-7 cells; also called hMBC1Lmλ

- binding result [1]: binds
B12: humanized #23-57-137-1 antibody having H-chain version “a” and L-chain version “l” (antibody, IgG1, V domains shown)
VH: B1 VH
VL: B6 VL with L47V
notes: Human Cγ1 (IgG1) and human λ C-regions; expressed in COS-7 cells; also called hMBC1Llλ
